# According to US20250241939A1, “NUCLEIC ACID-BASED DELIVERY SYSTEMS AND USES THEREOF” (Kodikaz Therapeutic Solutions, Inc., priority 2022, published 2025):
# B1: 4 (nucleic acid, listed as Homo sapiens)
# chain: TGATATGGTTTGGCTGTGTCCCCACCTAAATCTCATCTTGAATTGTAGTTCCCATAATCCCCATGTGTCATGGGAGGGACCCAGTGGGAGGTAATTTAATCCTGGGGGCAGTTACCCTCCTGCTATGTGTGTGTGTGTGTGTGTGTTCTCACGAGATCTGATGGTTTTATAAGGGGCTTTTCCCCCTTCGCTCGGCACTTCTCCTTCCTGCCGCCATGTGAAGAAGGACGTGTTTGCTTCCCCTTCCGCCATGATTGTAAGTTTCCTGAGGCCTCCCCAGCCATGCNGAACTGTGAGTCAATTAAACCTCTTTCCTTTATAAATTACCCAGTCTCGGGTGTGTCTTTATTAGCAGCGTGAGAACGGACTAATACA
# modifications: misc_difference 287 a, c, t, g, unknown or other
# B2: 13 (nucleic acid, listed as Homo sapiens)
# chain: TATCGAAAATTCACCCCCGATATTCACGTAGGTTCTTTTCTATTTTCCCTAAGCGTCGGCAGGTTTGAGAAATAAAGGGACAGAGTACAAAAGAGAGAAATTTTAAAGCTGGGCGTCCGGGGGAGACATCACATGTTGGTAGGTTCCATGATGCCCCACAAGCCGTAAAAACCAGCAAGTTTTTATTAGTGATTTTCAAAAGGGGAGGGAGTGTACGAATAGGTGTGGGTCACAGAGATCACGTGCTTCACAAGGTAATAGAATATCACAAGGCAAATGGAGGCAGGGCGAGATCACAGGACCACAGGACCGGGGTGAAATTAAAATTGCTAATGAAGTTTTGGGCACCATTGTCATTGATAACATCTTATCAGGAGACAGGGTTTGAGAGACAACCGGTCTGACCAAAATTTATTAGGTGGGAATTTCCTCGTCCTAATAAGCCTGGGAGTGCTATGGGAGACTGGGGCTTATTTCATCCCGTAGAGGCAACCATAAAAGACAGGCCCAAGCGGCCATTTAGAGCCTCCCAGGACATTCTCTTTCTCAGGGTGTTCCTTGCTGAGAAAAAGAATTCAGATATTTCTCCATTTGCTTTTGAAAGAAGAGAAATATGGCTCTGTTCCCGGCTCACGGCGCAGATTTAAGGTTATCTCCTTTTCCCTGAACAATTGCTGTTATCCTGTTCTTTTTTCAAGGTGCCCAGATTTCATATTGTTCAAACACACATGCTTACAATTTGTGCAGTTAAGCAATATCACAGGGTCCTGAGGGACATACATCCTCCTCAGCTGACAGGATTAAGAGATTAAAGTAAAGACAGGCATAGGAAATCACAAGGGTATTGATTGGGGAAGTGATAAGTGTCCATGAAATCTTCACAATTTATGTTTAGAGATTGCAGTAAAGACAGGCATAAGAAATTATAAAAGTATTAATTTGGGGAACTAATAAATGTCCATGAAATCTTCACAATCCACGTTCTTCTGCCATGGCTTCAGCCGGTCCCTCCGTTCGGGGTCCCTGACTTCCCGCAACA
# B3: MLT1J2 (nucleic acid, listed as Homo sapiens)
# DNA: TGTGTTAGTCAGGATAGGCTAACCTCTGTAACACACAACCCCAATTTTTCAGTGGCTCAGAACAATAGGAGTTTCTTTCTTACTCATGTAAAGTCCAGGTGTGGCAGAAACTTGCGGGGGAGAAAGTCTACTCCACAGCATCACTCAGGGACCCAGGCTCCTGCCTTACGGTGGTTCCGCCATTTTCCAGGGCCTCGGAGTCCTCCATCCCATCTCCTCCATTCAGCTGGTGGATGTGGGAGGAGAGCGTGTATGAAAGACCACACAGAAGCTTTTTTTGGGCCAGGCTTTGAGACGGCGCACATCAGTTTCGCTCTTGTTGCCCAGGCTGGAGTGCAATGGCGCAATCTCGGCTCACCGCAAAAGACACTGGGAAATTTGGTCTGGCCATGTGTCTAGGAAGCAGAGGAGATGGGGTTTCATAAACTCCTGAACTCTCTCTACCACG
# Key:
# [1] = system: MM1s (multiple myeloma) cell genome; assay: ctDNA coculture with MM1s cells, whole genome sequencing: genomic insertion sites, transposons at insertion points and SNVs (multiple myeloma); assay type: cell-based, human; conditions: for Gene: gene at identified genomic insertion site; for Gene / Location / No. SNP: multiple myeloma; for Location: identified genomic insertion site, chromosome; for No. SNP: number of single nucleotide variants (SNVs or SNPs) identified
# Method: (§1) The integration of ctDNAs into the host cell genome was evaluated. ctDNA was extracted from patient plasma, cultured for 24 hours with cells of a matching cancer cell type or non-matching cancer cell type, and whole genome sequencing was performed. The cell lines used were MM1s (multiple myeloma, MM) and MIA (pancreatic cancer, PC).
# Single nucleotide variants (SNVs) unique to the ctDNA that were found in the host cell genome under matching coculture conditions were identified.
# The sequence data was used to reconstruct genomic contigs for each experimental condition by de novo assembly. […] Coculture contigs carrying a ctDNA insertion were identified using NucDiff analysis. BLAST alignment analysis further validated the gain of ctDNA fragments in coculture conditions and identified the transition points of ctDNA insertion (FIGS. 3A-3C). […] The remaining 20% inserted into a chromosomal location distinct from their site of origin.
# (§2) Experiments were designed to identify the presence of transposons in ctDNA fragments. To map ctDNA genomic junctions more precisely, a PACBIO probe was ligated to multiple myeloma and pancreatic cancer ctDNA samples to label their 5′ and 3′ ends. Whole-genome sequencing of DNA from cells with ctDNA genomic integration was done using the Illumina platform. De novo assembly was performed on the sequencing output. ctDNA contigs containing PACBIO adaptor were then matched to those contigs containing inserted ctDNA sequences identified in the coculture experiments. Transposable element on ctDNA sequences at the insertion points (<100 nucleotides from transition point between cell and ctDNA) were detected and classified using RepeatMaster.
# (§3) A search was conducted for transposons that preferentially target cells of matching tumor types. The lists of transposons identified at the ctDNA insertion point in matching and mismatched coculture conditions were compared (e.g., MM ctDNA with MM cells or PC cells). Transposons were selected that were uniquely or preferentially inserted in the matching conditions.
# In multiple myeloma, AluSp, MER11, MER11C, AluJb, and L2a, among other subfamilies of retrotransposons were identified at the MM ctDNA insertion sites (FIG. 5B and TABLE 7).
# (§4) Whole-genome sequencing and Whole exon sequencing: ctDNA was extracted from 10 MM and 10 PC patients. DNA from CD138 (+) cells and from cell lines used in in vitro experiments (MM1s and MIA) was extracted using Blood & Cell Culture DNA Mini Kit (Quiagen, MD). DNA from […] paraffin embedded pancreatic tumors was obtained using QIAamp DNA FFPE Tissue Kit Print (Qiagen, MD).
# (§5) After extraction, ctDNA was ligated to the PACBIO adaptor ([…]) using the ABM DNA Library Prep Kit for Illumina Sequencing (Applied Biological Materials Inc. Canada). PACBio-labeled ctDNA and regular ctDNA were subjected to standard methods for library preparation and sequencing using Illumina and Agilent protocols, respectively. Applied Biological Materials Inc. prepared the libraries and performed whole-exon and -genome sequencing. The average target coverage was 50×.
# (§6) Identification of transposable elements and its nucleotide variants: To determine the locations of transposable-like regions in contigs, sequences were analyzed and transposable elements (TEs) were identified and classified using RepeatMasker version 4.1.0 and the Dfam database (release 3.1) of repetitive DNA families was used as a reference for identifying repeats in ctDNA contig sequences that were part of qualifying structural events. For each repeat sequence identified by RepeatMasker, the overall frequency of the specific repeat (e.g., for AluSp or L1) and their parent class (e.g., SINE) was computed.
# Once the TE elements were identified, hit repeats/TE sequences, unique contigs for all samples, and insertion sequence were aligned with MAFFT software version. […]
# [2] = system: MIA (pancreatic cancer) cell genome; assay: ctDNA coculture with MIA cells, whole genome sequencing: genomic insertion sites, transposons at insertion points and SNVs (pancreatic cancer); assay type: cell-based, human; conditions: TABLE 8, pancreatic cancer co-culture
# Method: as §1
# The sequence data was used to reconstruct genomic contigs for each experimental condition by de novo assembly. […] Coculture contigs carrying a ctDNA insertion were identified using NucDiff analysis.
# as §2, §3, §4
# as §5, with “sequencing.” for “sequencing. The average target coverage was 50×.”
# as §6
# Once the TE elements were identified, hit repeats/TE sequences, unique contigs for all samples, and insertion sequence were aligned with MAFFT software version. Mutations in TE sequences were identified by comparison of nucleotides at each position in the multiple sequence alignment with the “Biostrings” R package (version 4.1). A position was considered to contain mutation if the substitution was present in contigs of all samples.
molecule,measurement,setting,value
L1MB3,blast orientation,"[1]; TABLE 7, multiple myeloma co-culture, BLAST alignment orientation",Plus/Plus
same,blast chr,"[1]; TABLE 7, multiple myeloma co-culture, chromosome with the longest result for BLAST analysis of the full contig",chr2
same,Distance from insertion,"[1]; TABLE 7, multiple myeloma co-culture, distance between insertion and the transposon (0 if they overlap)",−68
same,Location relative to insertion,"[1]; TABLE 7, multiple myeloma co-culture, location of the transposon relative to the insertion on the contig",right
B1,Gene,[1],PI4K2B
same,Location,[1],Chr4
same,No. SNP,[1],2
B2,Gene,[1],none
same,Location,[1],Chr14/ and Chr3
same,No. SNP,[1],4
B3,blast orientation,[2]; BLAST alignment orientation,Plus/Plus
same,blast chr,[2]; chromosome with the longest result for BLAST analysis of the full contig,chr21
same,Transposon orientation,[2]; compared with the human reference genome,direct
same,Distance from insertion,[2]; distance between insertion and the transposon (0 if they overlap),0
same,Location relative to insertion,[2]; location of the transposon relative to the insertion on the contig,intersect
